This test concerns the target T1, Ab3 WT recombinant Fc fragment (UniProt P01857-1 104-330 = IgG part, limits assumed).
T1 construct: domain: Fc fragment; Ab3 is an Fc fragment
The experiment in a line: Biacore SPR, pH 6.0.

Results on one molecule are retold here after US20190263934A1 (published 2019).

Description: With the biotin CAPture kit, the CAPture reagent was captured on the CAP chip surface to a binding RU of >2,000 RU, followed by 0.1 μg mL⁻¹ FcRn in the appropriate channels for 24 s at 30 uL min⁻¹ to a final binding RU of ˜2 RU. The running buffer for the FcRn binding kinetics experiments was PBS with 0.05% Surfactant P-20 (PBS-P+, GE Healthcare) at pH 6.0 or 7.4. A concentration series of a 4-fold serial dilution from 1000 nM antibody was performed in quadruplicate for each variant, including a 0 nM control. Kinetic measurements were obtained for association and dissociation times of 180 and 300 sec, respectively at a flow rate of 10 μL min⁻¹. The C1 and CAP sensor chips were regenerated with 10 mM sodium tetraborate, 1 M NaCl pH 8.5 (GE Healthcare) for 30 sec at 50 μL min⁻¹ or 6 M guanidine hydrochloride, 250 mM sodium hydroxide (GE Healthcare) for 120 s at 50 uL min¹, respectively, followed by an additional 60-90 sec stabilization step in PBS-P+pH 6.0. […]
Kinetic parameters for the concentration series at pH 6.0 were fit to a bivalent model using the Biacore T200 Evaluation Software due to avidity effects. […] The apparent binding affinity was calculated from the first on and off-rates from the bivalent model. The residual binding at pH 7.4 was measured using 1000 nM of each antibody in triplicate at the same time for response comparison.

B1: mouse FcRn (receptor)
chain: SETRPPLMYHLTAVSNPSTGLPSFWATGWLGPQQYLTYNSLRQEADPCGAWMWENQVSWYWEKETTDLKSKEQLFLEALKTLEKILNGTYTLQGLLGCELASDNSSVPTAVFALNGEEFMKFNPRIGNWTGEWPETEIVANLWMKQPDAARKESEFLLNSCPERLLGHLERGRRNLEWKEPPSMRLKARPGNSGSSVLTCAAFSFYPPELKFRFLRNGLASGSGNCSTGPNGDGSFHAWSLLEVKRGDEHHYQCQVEHEGLAQPLTVDLDSSARSS
b2m: IQKTPQIQVYSRHPPENGKPNILNCYVTQFHPPHIEIQMLKNGKKIPKVEMSDMSFSKDWSFYILAHTEFTPTETDTYACRVKHASMAEPKTVYWDRDM
modifications: biotinylated
notes: only 'biotinylated ... mouse FcRn' is told; also called mFcRn
For the molecule B1, the Kd amounted to 61 nM.
